Patent publication US20040136959A1 (published 2004)

B1: Recombinant human IL-4 (ligand, UniProt P05112 25-153, looked up)
chain: HKCDITLQEIIKTLNSLTEQKTLCTELTVTDIFAASKNTTEKETFCRAATVLRQFYSHHEKDTRCLGATAQQFHRHKQLIRFLKRLDRNLWGLAGLNSCPVKEANQSTLENFLERLKTIMREKYSKCSS
notes: also called unlabeled IL-4

Assays:
[1] = biological target: human IL-13 receptor α2 chain (IL-13Rα2) (human) (UniProt Q14627); test: cell-based or functional assay
[2] = biological target: IL-13 receptor (IL-13R) as naturally present on the human cell lines (human); test: cell-based or functional assay
[3] = biological target: T1, human IL-13 receptor α2 chain (IL-13Rα2) (human, UniProt Q14627 27-380); test: 125I-IL-4 radioreceptor binding on SCCHN cells, vector control against IL-13Rα2 transfectants
T1 construct: also called IL-13Rα2 chain; IL-13Rα chain
T1 sequence: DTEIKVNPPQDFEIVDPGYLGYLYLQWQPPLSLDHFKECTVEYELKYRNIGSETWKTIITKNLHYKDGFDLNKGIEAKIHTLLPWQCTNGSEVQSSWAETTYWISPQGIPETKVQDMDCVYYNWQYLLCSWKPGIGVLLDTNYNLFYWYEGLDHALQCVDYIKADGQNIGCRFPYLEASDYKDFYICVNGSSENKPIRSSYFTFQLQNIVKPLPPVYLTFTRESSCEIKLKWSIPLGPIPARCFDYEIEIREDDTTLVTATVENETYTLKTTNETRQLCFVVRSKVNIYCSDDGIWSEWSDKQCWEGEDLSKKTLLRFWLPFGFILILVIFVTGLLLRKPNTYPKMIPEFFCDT

Row | Molecule | IC50, inhibition of protein synthesis, HN12 cells (IL-13Rα2-positive) [1] [mg/L] | IC50, inhibition of protein synthesis, IL-13Rα2-positive SCCHN cell lines [1] [mg/L] | IC50, inhibition of protein synthesis, KCCTC873 cells (IL-13Rα2-positive) [1] [mg/L] | IC50, inhibition of protein synthesis, YCUM911 cells (IL-13Rα2-positive) [1] [mg/L] | IC50, inhibition of protein synthesis, A253 cells [2] [mg/L] | IC50, inhibition of protein synthesis, Hep-2 cells [2] [mg/L] | IC50, inhibition of protein synthesis, KB cells [2] [mg/L] | IC50, inhibition of protein synthesis, KCCL871 cells [2] [mg/L] | IC50, inhibition of protein synthesis, KCCT871 cells [2] [mg/L] | IC50, inhibition of protein synthesis, KCCT891 cells [2] [mg/L] | IC50, inhibition of protein synthesis, KCCTCM901 cells [2] [mg/L] | IC50, inhibition of protein synthesis, RPMI2650 cells [2] [mg/L] | IC50, inhibition of protein synthesis, YCU891 cells [2] [mg/L] | IC50, inhibition of protein synthesis, YCUM862 cells [2] [mg/L] | IC50, inhibition of protein synthesis, YCUT891 cells [2] [mg/L] | IC50, inhibition of protein synthesis, YCUT892 cells [2] [mg/L] | IC50, inhibition of protein synthesis, other 14 SCCHN cell lines [2] [mg/L] | binding result [3]
1 | IL-13-PE38 (from UniProt P35225 25-146; P11439 278-389; P11439 406-638) | 0.0075 | < 0.01 | 0.008 | 0.004 | 0.155 | 0.2 | 0.1 | 0.185 | 0.275 | > 1 | 0.11 | > 1 | 0.5 | > 1 | > 1 | > 1 | 0.1 to 1 | 
2 | B1 |  |  |  |  |  |  |  |  |  |  |  |  |  |  |  |  |  | no binding
